Measurements from paper PMC9860126, “Mechanistic insights into the nickel-dependent allosteric response of the Helicobacter pylori NikR transcription factor”.

Tests used:
Test in all cases: fluorescence anisotropy; Ni(II)-bound; FA: 5 nM DNA, 20 mM Tris pH 7.6, 100 mM NaCl, 3 mM MgSO4, temperature not stated (Ni loading 1.2 eq NiSO4 per monomer at RT). EMSA: 20 mM Tris pH 7.5, 100 mM KCl, 3 mM MgCl2, 0.1% IGEPAL, 5% glycerol, 0.1 mg/ml herring sperm DNA, RT; gel with 800 uM NiSO4 at 4 C
Details in all cases: protein: recombinant; tags: none stated; chain copies: 4; label: fluorescein on internal thymine (T14 of strand 1); blunt
[1] = target: HpNikR I127A (Helicobacter pylori G27, UniProt A1YSQ9 1-148, I127A)
[2] = target: HpNikR GGS (Helicobacter pylori G27, UniProt A1YSQ9 1-148, P59G;N60G;D61S)
[3] = target: HpNikR Δ3aa (Helicobacter pylori G27, UniProt A1YSQ9 1-58+62-148, internal_change)

B1: ureA promoter 32 bp (FA) (dsDNA)
DNA 1: ATATAACACTAATTCATTTTAAATAATAATTA
DNA 2: TAATTATTATTTAAAATGAATTAGTGTTATAT
Kd [1]: 8.7 ± 1.3 nM
Kd [2]: 4.6 ± 1.2 nM
Kd [3]: 4.4 ± 1.3 nM
